{"source": "paper PMC2765250", "about": "(Vaccine, 2009)", "molecular_target": "purified rhesus macaque MHC class I molecule Mamu-B*17 with human beta2-microglobulin (rhesus macaque | human)", "assay": "radioligand binding", "data": [{"binder": "LTIEAIENYF", "note": "[VACV-WR peptide 71NP (LTIEAIENYF), ORF L4R]", "values": [{"measurement": "IC50", "result": 8.77, "unit": "µM"}]}, {"binder": "SSPLELFML", "note": "[VACV-WR peptide 51P (SSPLELFML), ORF E9L]", "values": [{"measurement": "IC50", "result": 11.8, "unit": "µM"}]}]}
